# From patent US20230365670A1 (SCOUT BIO, published 2023)
# Positions count from the first letter of the chain named.
# B1: ca_αD11_HCCDR2(L/V) (caninized anti-NGF antibody) (antibody, V domains shown)
# VH: EVTLQESGPGLVKPSQTLSLTCVVSGFSLTNNNVNWVRQRPGRGLEWMGGVWAGGATDYNSAVKSRISITRDTAKNQVSLQLSSMTTEDTAVYYCARDGGYSSSTLYAMDAWGQGTLVTVSS
# VL: EIVMTQSPASLSLSQEEKVTITCRASEDIYNALAWYQQKPGQAPKLLIYNTDTLHTGVPSRFSGSGSGTDYSFTISSLEPEDVAVYFCQHYFHYPRTFGAGTKVELK
# notes: The antibody was detected with goat anti-canine IgG-HRP; also called ca_αD11_HCCDR2(LN); CaNGF
# B2: fe_αD11_HCCDR1(F/L) (felinized anti-NGF monoclonal antibody, F to L at position 2 of heavy chain CDR1) (antibody, V domains shown)
# VH: QVQLMESGADLVQPSESLRLTCVASGLSLTNNNVNWVRQAPGKGLEWMGGVWAGGATDYNSALKSRLTITRDTSKNTVFLQMHSLQSEDTATYYCARDGGYSSSTLYAMDAWGQGTTVTVSA
# VL: DIEMTQSPLSLSATPGETVSISCRASEDIYNALAWYLQKPGRSPRLLIYNTDTLHTGVPDRFSGSGSGTDFTLKISRVQTEDVGVYFCQHYFHYPRTFGQGTKLELKR
# notes: also called fe1_αD11_HCCDR1(F/L)
# B3: fe_αD11 (felinized anti-NGF monoclonal antibody with the CDR sequences of rat αD11) (antibody, V domains shown)
# VH: B2 VH with M5V, D10E, S15G, V23A, L27F
# VL: B2 VL with A13V, T18S
# notes: also called fe1_αD11
# B4: fe_αD11_HCCDR2(L/V) (felinized anti-NGF monoclonal antibody, L to V at position 14 of heavy chain CDR2) (antibody, V domains shown)
# VH: B2 VH with M5V, A9G, S15G, E16G, L27F, L63V
# VL: B2 VL
# notes: also called fe_αD11+HCCDR2(LN); fe_αD11_HCCDR2(LN)
# How the values were obtained:
# mouse (murine) NGF [1] = target: T1, mouse (murine) NGF (mouse (murine), UniProt P01139 122-241, limits assumed); assay: ELISA, plates coated with 0.1 µg/ml muNGF, antibody at 100 to 1.56 ng/ml for the standard curve, goat anti-canine IgG-HRP detection
# T1 construct: also called muNGF
# T1 sequence (P01139 122-241 limits assumed): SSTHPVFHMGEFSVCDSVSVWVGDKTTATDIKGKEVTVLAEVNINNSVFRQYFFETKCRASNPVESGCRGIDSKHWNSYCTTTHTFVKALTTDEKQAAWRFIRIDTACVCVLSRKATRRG
# Experimental: Pharmacokinetic (PK) studies were conducted in healthy dogs. Four animals were administered purified ca_αD11_HCCDR2(LN) subcutaneously (SC) at 1.0 mg/kg body weight on Day 0 and Day 28 of the study. The ca_αD11_HCCDR2(LN) antibody carries the same CDR sequences as described in Tables 3 and 4, below. Serum concentrations of ca_αD11_HCCDR2(LN) were assessed over 56 days using an NGF-binding ELISA, as detailed below. Pharmacokinetic parameters were determined using PKSolver software (Zhang Y et al. Computer Methods and Programs in Biomedicine. 2010; 99(3):306-314). The emergence of anti-drug antibodies was assessed at Days 28 and 56 using a bridging electrochemiluminescence (ECL) assay, as detailed below.
# The concentration of ca_αD11_HCCDR2(LN) in dog serum was determined using an NGF-binding ELISA. Briefly, ELISA plates were coated with 0.1 μg/ml murine NGF (muNGF) and blocked with PBS/0.05% Tween 20/1% BSA. muNGF coated wells were incubated for 1 hour at room temperature with serum diluted in PBS/0.05% Tween 20/1% BSA (100 μl/well). Antibody concentrations ranging from 100 ng/ml to 1.56 ng/ml were used to establish a standard curve. After washing, the plates were incubated with a 1/10,000 dilution of goat anti-canine IgG-HRP in PBS/0.05% Tween 20/1% BSA. […] Development was stopped by the addition of 2M H₂SO₄ and absorbance read at 450 nm and background was subtracted.
# mouse (murine) NGF [2] = target: T1, mouse (murine) NGF; assay: ELISA, plates coated with 0.1 µg/ml muNGF, antibody at 100 to 1.56 ng/ml for the binding curve, goat anti-feline IgG-HRP detection
# Experimental: Pharmacokinetic (PK) studies were conducted in healthy cats. Four animals were administered each of the felinized anti-NGF antibodies (fe_αD11, fe_αD11+HCCDR1(F/L) and fe_αD11+HCCDR2(LN)) subcutaneously (s.c.) at 2.0 mg/kg on Days 0, 21, 42 and 63. Serum concentrations of the antibodies were assessed over 91 days. The concentration of each antibody in the serum was determined using an NGF-binding ELISA. Briefly, ELISA plates were coated with 0.1 μg/ml mouse (murine) NGF (muNGF) and blocked with PBS/0.05% Tween 20/1% BSA. muNGF-coated wells were then incubated for 1 hour at room temperature with antibody preparations, diluted in PBS/0.05% Tween 20/1% BSA (100 μl/well). Antibody concentrations ranging from 100 ng/ml to 1.56 ng/ml were used to establish a binding curve. After washing, the plates were incubated with a 1/5,000 dilution of goat anti-feline IgG-HRP in PBS/0.05% Tween 20/1% BSA. Plates were washed with PBS/0.05% Tween 20 and developed by the addition of TMB substrate. Development was stopped by the addition of 2M H₂SO₄, absorbance read at 450 nm and background values were subtracted from the absorbance readings. The non-compartmental pharmacokinetic parameters of the three felinized anti-NGF antibodies post-dose 1 and 4 were calculated using PKsolver. software.
Binder,binding result (mouse (murine) NGF [1]),binding result (mouse (murine) NGF [2])
B1,binds,–
B2,–,binds
B3,–,binds
B4,–,binds
